Assay: yeast display, Sf9 membrane polyspecificity reagent, FACS + sequencing; frameworks hold sequencing errors
Method in brief: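 Sorting gates, low and high (top ~1%), were placed on anti-HA fluorescence to track expression and on streptavidin fluorescence to track reagent binding. A clone's polyreactivity label is taken from the gate it came out of. The reagent was 10% biotinylated, detergent-solubilized Sf9 membrane, applied for 1 hour at 4 °C to galactose-induced yeast display cells.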

Sequence	polyreactivity (PSR sort gate)
QVQLVESGGGLVQAGGSLRLSCSASGFILSYYARGWYRQSPGKERELVAAISRAGSTNYADSVKGRFTISRDNAKNTVYLQMNSLKPEDTAVYYCNKRQYSARVSRSYDYWGQGTQVTVSS	high polyreactivity
QVQLVESGGGLVQAGGSLRLSCSASGFTFDYYAMGWYRQAPGKERELVAAITWNTVSTYYADSVKGRFTISRDNAKNTVYLQMNSLKPEDTAVYYCAADTQWLYRYDYWGQGTQVTVSS	low polyreactivity
QVQLVESGGGLVQAGGSLRLSCSASGFTFYRYAMGWYRQAPGKERELVAAITSGGSTYYADSVKGRFTISRDNAKNTVYLQMNSLKPEDTAVYYCAAQKARVFRGAWTRYEYWGQGTQVTVSS	high polyreactivity
QVQLVESGGGLVQAGGSLRLSCSASGFTLGFNAMGCYRQAPGKEREFVASITYRGGSTYYADSVKGRFTISRDNAKNTVYLQMNSLKPEDTAVYYCAARHRSSYSLYWGQGTQVTVSS	high polyreactivity
QVQLVESGGGLVQAGGSLRLSCSASGIIFRSYAMGWYRQAPGKERELVAAITGGGTTNYADSVKGRFTISRDNAKNTVYLQMNRLKPEDTAVYYCNAGLDWFWFNEMDYWGQGTQVTVSS	low polyreactivity
QVQLVESGGGLVQAGGSLRLSCSASGIILPVYAMGWYRQAPGKEMELVAAISRDGGSTYYSDSVKGLFTISRDNAKNNVYLLMNSLKPEDTAVYYCNAVWRGIYFNGKFDYWGQGTQVTVSS	high polyreactivity
QVQLVESGGGLVQAGGSLRLSCSASGIIMDPNAMGWYRQAPGKERELVAGITRSGVSTYYSDSVKGRFTISRDNAKNTVYLLMNSLKPEDTAVYYCAKDRIYGSKGEDEDYWGQGSQVTVSS	low polyreactivity
QVQLVESGGGLVQAGGSLRLSCSASGITFGANTMGWYRQAPGKERELVAAITISGGITHYADSVKGRFTISRDHAKNTVYLQMNSLKPEDTAVYYCAAGAYWRLYPYRQRNGGRMYYWGQGTQVTVSS	low polyreactivity
QVQLVESGGGLVQAGGSLRLSCSASGITFWLYDKGWYIQAPGKERELVARITYSGTSTYYADSVKGRFTISRDNAKNTVYLQMNSLEPEDTAVYYCAADLTYHYPRYITYEYWGQGTQVTVSS	low polyreactivity
QVQLVESGGGLVQAGGSLRLSCSASGLTFSYYAMGLYRQAPGTERELVAAITSSGGNTYYADSVKGRFTISRDNAKNTVYLQMNSLKPEDTAVYYCNAVVGLGYNYWGQGNQVTVSS	high polyreactivity
QVQLVESGGGLVQAGGSLRLSCSASGLTFYGYVMGWYRQAPGKERELVASISRSGRRTYYADSVKGRFTISRDNAKNTVYLQMNSLKPEDTAVYYCAAADHVGQEDDYWGLGTQVTVSS	low polyreactivity
QVQLVESGGGLVQAGGSLRLSCSASGRIFAAYAMGWYRQAPGKERELVATITRGGSTYYADSVKGRFTISRDNAKNTVYLQMNSLKPKDTAVYYCAVKRGFTQYKPFNYWGQGTQVTVSS	high polyreactivity
QVQLVESGGGLVQAGGSLRLSCSASGRIFPFNDMGWYRQAPGKEREFVADISDNGGSTYADSVKGRFTISRDNAKNTVYLQMNSLKPEDTAVYYCAADLLDISSYDGMDYWGQGTQVTVSS	low polyreactivity
QVQLVESGGGLVQAGGSLRLSCSASGRIFSRYAMGWYRQAPGKERELVATISSGGGTYYADSVKGRFTISRDNAKNTVYLQMNSLKPEDTAVYYCATRYPRKLRVPYDYWGQGTQVTVSS	high polyreactivity
QVQLVESGGGLVQAGGSLRLSCSASGRTFEHNCMGWSRQAHGKERELVASITSVGSTDYADSVKGRFTISRDNAKNTVYLQMNSLKPEDTAVYYCAKTLGSQNYDFDYWGQGTQVTVSS	low polyreactivity
QVQLVESGGGLVQAGGSLRLSCSASGRTFLGYAMGWYRQAPGKERELVAAITIGGGTYADSVKGRFTISRDNAKNTVYLQMNSLKPEDTAVYYCAKPGWYDGDYWGQGTQVTVSS	low polyreactivity
QVQLVESGGGLVQAGGSLRLSCSASGRTFTVNAMGWYRQAPGKERELVATITYGGGSTYYADSVKGRFTISRDNAKNTVYVQMNSLKREDTAVYYCYADYWAVNYDYWGQGTQVTVSS	low polyreactivity
QVQLVESGGGLVQAGGSLRLSCSASGRTFWRYAMGWYRQAPGKERELVAAISSGGRTNYADSVKGRFTISRDNAKNTVYLQMNSLIPEDTAVYYCAADSYYGYGYWGQGTQVTVSS	high polyreactivity
QVQLVESGGGLVQAGGSLRLSCSASGSIFDVFAMGWYRQAPGKERELVAGISRSGGSTYYADSVKGRFTISRDNAKNTVYLQMNSLKPEDTAVYYCAARYTYYRGRYDYWGQGTQVTVSS	low polyreactivity
QVQLVESGGGLVQAGGSLRLSCSASGSIFGFYAMGWYRQAPGKERELVAAIDSGDSTNYADSVKGRFTISRDHAKNTVYLQMNSQKPEDSAVYYCNAEAWWYFWFDYWGQGTQVTVSS	low polyreactivity
QVQLVESGGGLVQAGGSLRLSCSASGSIFLIYAMGWYRQAPGKERELVATINRGDNTYYADSVKGRFTISRDNAKNSVYLQMNSLKPEDTAVYYCAARAYDLGYAGYDYWGQGTQVTVSS	low polyreactivity
QVQLVESGGGLVQAGGSLRLSCSASGSIFRSNAIGWYRQAPGKERELGAAISWSNDSTYYADSVKGRFTISRDNAKNTVYLQMNSLKPEDSAVYYCAAVGSGRYSGYDFLGQGTQVTVSS	high polyreactivity

Sequence	polyreactivity (PSR sort gate)
QVQLVESGGGLVQAGGSLRLSCSASGSTFYYYAMGRYIQAPGKDRELVAAISSSGGTTYYADSVKGRFTISRDNAKNTVYLQMNSLKPEDTAVYYCAAQRYPSSLYQRFYYWGQGTQVTVSS	high polyreactivity
QVQLVESGGGLVQAGGSLRLSCSASGYTIDLYAKGWYRQAPGKERELVAAISIRGGSTYYADSVKGRFTISRDNAKNTVYLQMNSLKPEDTAVYYCATVTYRRSYIAYRGTGDYDYWGQGTQVTVSS	low polyreactivity
QVQLVESGGGLVQAGGSLRLSCSAYGRTFNSYAMGWYRQAPGKERELVATISSGGSTKYADSVKGRFTISRDNAKNTVYLQMNSLKPEDTAVYYCNKVFPNLYIYVVRGLIEMDYWGQGTQVTVSS	low polyreactivity
QVQLVESGGGLVQAGGSLRLSCSSSGSIFVKNAMGWYRQAPGKERELVATISTGGRTYYADSVKGRFTISRDNAKNTVYLQMNSLIPEDTAVYYCATDFYPRYLLRTYRPYYYCGQGTQVTVSS	low polyreactivity
QVQLVESGGGLVQAGGSLRLSCSSSGYTFYGYAMGWCRQAPGKERELVADISWSGTNTNYADSVKGRFTISRDNAKNTVYLQMNSLKQDDTAVYYGAAGYYYRGFYTEDYWGQGTQVTVSS	high polyreactivity
QVQLVESGGGLVQAGGSLRLSCTASGITSGSYAMGWYRQEPGKESELVAAISNSGSTYYADSVKGRFTISRDNAKNTVYLQMNSLKPEDTEVYYCAAVTVGGHRSHRSGRSDYWGQGTQVTVSS	low polyreactivity
QVQLVESGGGLVQAGGSLRLSCTASGSIFSHNSMGWYRQAPGKERELVAAINQNGGITYYADSVKGRFTISRDNAKNTVYLQMNSLKPEDTAVYYCAARRYYRRPHKYDYWGQGTQVTVSS	high polyreactivity
QVQLVESGGGLVQAGGSLRLSCTASGSTFVAYAMGWYRQAPGKERELVAAITSSGGRTYYADSVKGRFTISRDNAKNTVYLQMNSLKPEDTAVYYCNVYPSRRRAVGESERYYWGQGTQVTVSS	high polyreactivity
QVQLVESGGGLVQAGGSLRLSCVASGSISQTYDMGWYRQAPGKERELVAAISSSGASTYYADSVKGRFTISRDNAKNTVYLQMNSLKPEDTAVYYCNADKFRRYGYWGQGTQVTVSS	high polyreactivity
QVQLVESGGGLVQAGGSLRLSCVPPDSSSLSMLWDGIDRRLGKKGSWLPVLTSRGVGTYYADSVKGRFTISRDNAKNTVYLQMNSLKPEDTAVYYCYARYEVFYRYDYWGQGTQVTVSS	low polyreactivity
QVQLVESGGGLVQAGGSLRLSCVPSARTFYVYAMGWYRQSPGKQSELVAAIDYSGGDTYYADSVKGRFTISRDNAKNTVYLQMNSLKPVDTAVYYCAAEEYIPIYRYDYEYWGQGTQVTVSS	high polyreactivity
QVQLVESGGGLVQAGGSLRLSCVSSGFTFYFYAMGWYRQPPGKEREFVATITSNGGSTYYADSVKGRFTISRDNAKNTDYLQINSLKPEDTAVYYCNAGRYVRWWWYSPDDYWGQGTQVTVSS	high polyreactivity
QVQLVESGGGLVQAGGSLRLSFAASGFIFGLNAKGWYRQAPAKERELVAAIRWRGDTTYYADSVKGRFTISRDNAKNTVYLQMKSLKPEDTAVYSCNAVVVPSRYDYWGQGTQVTVSS	low polyreactivity
QVQLVESGGGLVQAGGSLRLSFAASGFIFPYYAMGWYRQAPGKERELVAAITSSGGSTYYADSVKGRFTISRDNAKNTVYLQMNSLKPEDTAVYYCNAYGRRTREYDYWGQGTQVTVSS	high polyreactivity
QVQLVESGGGLVQAGGSLRLSFAASGFTFWKNAMGWYRQAPGKERELVATISNGGNTYYADSVKGRFTISRDNAKNTVYLQMNSLKPEDTAVYYCATGYPSDLGREFDYWGQGIQVTVSS	high polyreactivity
QVQLVESGGGLVQAGGSLRLSFAASGITFDHYAMGWYRQAPGKEREFVAAIDDIGGDTYYADSVKGRFTISRDNAKNTVYLQMNSLKPEDTAVYYCAADYGYYSRFYYWGQGTQVTVSS	low polyreactivity
QVQLVESGGGLVQAGGSLRLSFAASGITFTVYTMGWNRQAHGKVRELVPTINSSGSTYYADSVKGRFTISRDNAKNRVYLQMNSLKPEDTAVYYCAAEYWINRDLMDYWGQGTQVTVSS	high polyreactivity
QVQLVESGGGLVQAGGSLRLSFAASGITFYYYTMGWYRQAPGKERELVAGITRGGRTYYADSVKGRFTISRDNSKNSVYLQMNSLKPEDTAVYYFNADPWWRFDYWGQGTQVTVSS	low polyreactivity
QVQLVESGGGLVQAGGSLRLSFAASGITITYYAMGWYRQAPGKERELVAGITNGRSTYYADSVKGRFTISRDNAKNTVYLQMNSLKPEDTAVYYCAAYVWSHSVGHDYWGQGTQVTVSS	low polyreactivity
QVQLVESGGGLVQAGGSLRLSFAASGNILKSYAMGWYRQAHGKERELVAAISSSGGSTYYADSVKGRFTISRDNAKNSVYLQMNSLKPEDTAVYYCNAGAKSGKYYYWGQGTKVTVSS	low polyreactivity
QVQLVESGGGLVQAGGSLRLSFAASGRIFGTNTMGWYRQATGKERELVAGISSSGDSTYYADSVKGRFTISRDKAKNTVYLQINSLKPEDTAVYYCAARKGEFWLPQGGYNYWGQGTQVTVSS	low polyreactivity
